US20220073608A1

What was measured:
[1] = biological target: T1, human SEMA4D, full length, on CHO-K1 cells (CHO-K1 hSEMA4D) (human) (UniProt Q92854); assay: FACS, CHO-K1 hSEMA4D cells; Ab 13.3 nM
T1 sequence (looked up): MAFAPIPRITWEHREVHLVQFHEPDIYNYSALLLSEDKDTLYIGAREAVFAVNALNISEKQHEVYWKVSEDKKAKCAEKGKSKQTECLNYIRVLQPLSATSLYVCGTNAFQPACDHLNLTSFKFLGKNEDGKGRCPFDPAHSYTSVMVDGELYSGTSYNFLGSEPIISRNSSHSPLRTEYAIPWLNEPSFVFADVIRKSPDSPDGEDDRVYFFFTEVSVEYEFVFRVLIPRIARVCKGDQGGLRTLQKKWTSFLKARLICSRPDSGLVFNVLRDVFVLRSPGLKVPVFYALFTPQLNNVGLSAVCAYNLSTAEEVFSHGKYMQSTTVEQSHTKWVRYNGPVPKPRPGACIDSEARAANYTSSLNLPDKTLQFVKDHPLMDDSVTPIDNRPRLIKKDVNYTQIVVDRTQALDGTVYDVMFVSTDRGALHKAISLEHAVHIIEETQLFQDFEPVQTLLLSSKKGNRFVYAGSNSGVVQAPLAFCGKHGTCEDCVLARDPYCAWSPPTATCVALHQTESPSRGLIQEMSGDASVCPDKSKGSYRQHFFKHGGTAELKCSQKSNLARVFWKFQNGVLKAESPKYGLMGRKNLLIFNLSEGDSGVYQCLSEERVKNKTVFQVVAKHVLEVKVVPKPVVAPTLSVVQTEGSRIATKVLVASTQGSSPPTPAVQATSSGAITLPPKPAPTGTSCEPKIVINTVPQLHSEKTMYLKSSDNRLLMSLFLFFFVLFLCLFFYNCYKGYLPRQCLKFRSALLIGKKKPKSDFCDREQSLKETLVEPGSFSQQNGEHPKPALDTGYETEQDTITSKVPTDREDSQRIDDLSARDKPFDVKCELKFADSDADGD

[2] = biological target: monkey SEMA4D, full length, on CHO-K1 cells (CHO-K1 cSEMA4D) (monkey); assay: FACS, CHO-K1 cSEMA4D cells; Ab 13.3 nM
[3] = biological target: monkey SEMA4D, full length, on CHO-K1 cells (CHO-K1 cSEMA4D) (monkey); assay: FACS, CHO-K1 cSEMA4D cells; Ab 2.67 nM
[4] = biological target: mouse SEMA4D, full length, on CHO-K1 cells (CHO-K1 mSEMA4D) (mouse) (UniProt O09126); assay: FACS, CHO-K1 mSEMA4D cells; Ab 0.107 nM
[5] = biological target: mouse SEMA4D, full length, on CHO-K1 cells (CHO-K1 mSEMA4D) (mouse) (UniProt O09126); assay: FACS, CHO-K1 mSEMA4D cells; Ab 0.534 nM
[6] = biological target: T1, human SEMA4D, full length, on CHO-K1 cells (CHO-K1 hSEMA4D) (human); assay: FACS, CHO-K1 hSEMA4D cells; Ab 0.0213 nM
[7] = biological target: mouse SEMA4D, full length, on CHO-K1 cells (CHO-K1 mSEMA4D) (mouse) (UniProt O09126); assay: FACS, CHO-K1 mSEMA4D cells; Ab 0.0213 nM
[8] = biological target: monkey SEMA4D, full length, on CHO-K1 cells (CHO-K1 cSEMA4D) (monkey); assay: FACS, CHO-K1 cSEMA4D cells; Ab 0.00427 nM
[9] = biological target: T1, human SEMA4D, full length, on CHO-K1 cells (CHO-K1 hSEMA4D) (human); assay: FACS, CHO-K1 hSEMA4D cells; Ab 0.000853 nM
[10] = biological target: mouse SEMA4D, full length, on CHO-K1 cells (CHO-K1 mSEMA4D) (mouse) (UniProt O09126); assay: FACS, CHO-K1 mSEMA4D cells; Ab 0.000853 nM
[11] = biological target: T2, biotinylated hSEMA4D ECD-His (human) (UniProt Q92854); assay: FACS, blocking of biotinylated hSEMA4D ECD-His binding to 293F hPlexin B1 cells; Ab 333 nM
T2 sequence (chain, biotinylated with Biotin-X-X-NHS at a molar ratio of 8,1; sites not stated): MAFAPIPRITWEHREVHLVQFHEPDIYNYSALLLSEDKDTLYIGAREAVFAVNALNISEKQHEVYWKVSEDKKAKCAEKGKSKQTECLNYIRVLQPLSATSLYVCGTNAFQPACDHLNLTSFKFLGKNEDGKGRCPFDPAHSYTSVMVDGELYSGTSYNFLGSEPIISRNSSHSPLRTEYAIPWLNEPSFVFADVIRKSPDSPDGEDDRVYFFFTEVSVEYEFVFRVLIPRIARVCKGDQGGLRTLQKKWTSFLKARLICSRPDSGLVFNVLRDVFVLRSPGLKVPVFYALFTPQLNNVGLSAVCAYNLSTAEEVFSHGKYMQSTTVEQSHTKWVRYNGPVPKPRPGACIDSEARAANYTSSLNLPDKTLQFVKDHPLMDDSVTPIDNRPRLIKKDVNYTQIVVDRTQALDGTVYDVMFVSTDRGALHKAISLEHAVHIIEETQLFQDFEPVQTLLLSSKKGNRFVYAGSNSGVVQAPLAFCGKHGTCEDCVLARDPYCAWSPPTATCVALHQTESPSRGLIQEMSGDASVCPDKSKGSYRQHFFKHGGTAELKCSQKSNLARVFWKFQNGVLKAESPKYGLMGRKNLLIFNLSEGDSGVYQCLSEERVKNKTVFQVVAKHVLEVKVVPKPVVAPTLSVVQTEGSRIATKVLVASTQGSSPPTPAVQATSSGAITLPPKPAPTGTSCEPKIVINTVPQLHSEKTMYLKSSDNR

[12] = biological target: T2, biotinylated hSEMA4D ECD-His (human); assay: FACS, blocking of biotinylated hSEMA4D ECD-His binding to 293F hPlexin B1 cells; Ab 0.107 nM
[13] = biological target: T2, biotinylated hSEMA4D ECD-His (human); assay: FACS, blocking of biotinylated hSEMA4D ECD-His binding to 293F hPlexin B1 cells; Ab 0.534 nM
[14] = biological target: T2, biotinylated hSEMA4D ECD-His (human); assay: FACS, blocking of biotinylated hSEMA4D ECD-His binding to 293F hPlexin B1 cells; Ab 0.0213 nM
[15] = biological target: T2, biotinylated hSEMA4D ECD-His (human); assay: FACS, blocking of biotinylated hSEMA4D ECD-His binding to 293F hPlexin B1 cells; Ab 0.00427 nM

Substance: Human IgG control (antibody)
- MFI [1]: 35.8
- MFI [2]: 86.7
- MFI [3]: 33.3
- MFI [4]: 24.1
- MFI [5]: 23.7
- MFI [6]: 38.2
- MFI [7]: 24.1
- MFI [8]: 31.6
- MFI [9]: 37.2
- MFI [10]: 25
- MFI (residual ligand binding) [11]: 307
- MFI (residual ligand binding) [12]: 364
- MFI (residual ligand binding) [13]: 341
- MFI (residual ligand binding) [14]: 359
- MFI (residual ligand binding) [15]: 378

Substance: Mouse IgG control (antibody)
- MFI [1]: 40.2
- MFI [2]: 65.6
- MFI [3]: 37.8
- MFI [4]: 29.8
- MFI [5]: 29.5
- MFI [6]: 35.8
- MFI [7]: 30.5
- MFI [8]: 22.5
- MFI [9]: 35.5
- MFI [10]: 29.8
- MFI (residual ligand binding) [11]: 464
- MFI (residual ligand binding) [12]: 473
- MFI (residual ligand binding) [13]: 472
- MFI (residual ligand binding) [14]: 468
- MFI (residual ligand binding) [15]: 486
